Assay results as given in paper PMC9984488.

Assays:
MAP4K1 = MAP4K1 (UniProt Q92918); assay: GST pull-down from transfected cells; conditions: reference: HIP-55 wild type; sites S269,T291
14-3-3τ = 14-3-3τ (UniProt P27348); assay: GST pull-down from co-transfected cells; conditions: reference: GST-HIP-55 wild type; sites S269,T291

binding against the reference (MAP4K1)	binding against the reference (14-3-3τ)	Substance
weaker		HIP-55 (from UniProt Q9UJU6) HIP-55 S269A/T291A (HIP-55AA)
	lost	HIP-55 (from UniProt Q9UJU6) GST-HIP-55 S269A/T291A (HIP-55AA)
